Source: the DeepSol protein solubility set

Experiment: soluble on expression in E. coli; label from the status in PepcDB or PDB records

Sequence	soluble on expression in E. coli
MGSDKIHHHHHHMINEQRLLNTFLELVQIDSETGNESTIQPILKEKFIALGLDVKEDEAAKHPKLGANNLVCTMNSTIEEGEVPKLYLTSHMDTVVPAINVKPIVKDDGYIYSDGTTILGADDKAGLAAMLEVLQVIKEQQIPHGQIQFVITVGEESGLIGAKELNSELLDADFGYAIDASADVGTTVVGAPTQMLISAKIIGKTAHASTPKEGVSAINIAAKAISRMKLGQVDEITTANIGKFHGGSATNIVADEVILEAEARSHDPERIKTQVKHMTDVFETTASELGGKAEVTVEQSYPGFKINDNEAVVKIAQESARNLGLSANTIISGGGSDGSIINTFGIPSVILGVGYEKIHTTNERMPIKSLNLLASQVLEIIKIVARQSK	not soluble
MGSDKIHHHHHHMINKYKVSENRLSIMEIERFAVHDGPGIRTVVFLQGCPLHCSWCSNPESQKRKPHLLHIKNKCIGCGRCEAICPRGNISIQDHFPVFNRQACVACKACERICPQNAIKFVGESITSSEIMEILLRDRDYYLNSGGGVTFSGGEAFTQFEGLMDLLIQCKNEKLHTSVETCGQVNLDKIKQALPLIDLFLFDIKHTDKDLLQKETGANLDTILTNLRYISSKSANKVTIRVPVIPGFNFNENTLREIFMLAKENRIKCVHLLPYHTLGKDKYEQLGLTYPYSCEQMLAKEELFPFKEMGEKMGLEIRIGG	not soluble
MGSDKIHHHHHHMINRYLGDPPFESPERRNRLPERHKVKAGFSPTIDCAVLIAAAEKGFAADEGIELELFREQSARAVLAALGGDDIHIGHLPAPVPVGSAVGLDDLPADIVGVFTLSLGGSATAVSHGFYDELYREGMKLPDPAAFGRAMARVCAARRAAGKNPPVFAVEDIVSTPFYTLRYLLGSCGVLLGRDMEIIEALPKAMPALLESGKVDALCTAEPAGSAVVLGGAGRIVTTGALIWHNAPEKILAVKKGWAEENATLLEGLLRALYRAGEWCANDANIEELAGILAAPQYIDENGEFLLPALTGYISTSQRDMQRFQEFFVTSAKAANFPWQSQALWFFSQMLRWGEVPAERRLEPTMAEAARNAYRPDIFRKAMKPLFVPVPGANLKLEGTLKEPVHVGASRTGLVLGPDCFFDGRVFDPETLEMDDEI	not soluble
MGSDKIHHHHHHMIQKGLEGVKICESSICYLDGINGRLYYRGIPVEELAEKSTFEETAYFLWYGKLPTKSELEEFKRKMADYRELPAEALGILYHLPKNLHYIDVLKIFLSIHGSMDGNDEDLREKAIRVASVFPTILAYYYRYSKGKELIRPRKDLSHVENFYYMMFGERNEKIRLLESAFILLMEQDINASTFAALVIASTLSDLYSCIVGALGALKGPLHGGASEKVPPMLEEIGSEDRVEEFVQKCLKEKRKIMGFGHRVYKTYDPRAVFLKRVLQEHFPDSKLFRIASKLEEYIVSNKIKNIYPNVDLYSSVLFEELGFPRNMFTALFATARVVGWTAHVIEYVSDNKLIRPTSEYVGPMDVEYIPIERRDENG	not soluble
MGSDKIHHHHHHMIQRRETFLNNVAEKLGRGRRTAGVKRPDYTVKPQFEVMKEHSSDQLVNVLSEQCTKIHTDVKQTKVDRLEQAIDNVLEEYSARNVITWNDPRFDQFGLTSFLQREQVEVWDHTEGERLVEKAEQADIGITFADYTLAESGTVVLLSGNGKGRSVSLLPTYYIAIIPKSTLVPRMSQVTRELHLKAASGERLPSCINFISGPSNSADIEMNLVVGVHGPIRACYIVVEDR	not soluble
MGSDKIHHHHHHMIRNLTPSDFAQVISLGEQVHGANYLDLDTLKHYYQLGIKDGINAHFVAEQAGEIIGFRLTFTANQWTLDEWCSPALWGVEIDKVCYFKSNTLAEKARGQGIGGDLLAQSIAAVKAQGAKAGVSHLWKQSPHNAAVRYFTKAGGRLIKEHPGRWNQANDGSDYLCVLCGNDCHCTACEMLINF	not soluble
MGSDKIHHHHHHMIRSLWIAKTGLNAQQTNMDVISNNLANVSTNGFKRQRAVFEDLMYQTIRQPGAQSSEQTMLPSGLQLGTGVRPVSTERIHTQGTFSETGNSKDVAIKGQGFFQVQLPDGTTAYTRDGAFQLDGNGQLVTSSGYQVQPAITVPANATELNIGRDGIVSVKVQGQAATNQIGQLTLTTFINDSGLESMGENLYLETASSGAPNETNPGLNGAGLLYQKYVETSNVNVAEELVSMIQTQRAYEINSKAISSSDQMLQKLTQL	not soluble
MGSDKIHHHHHHMISMKPRYKPDWESLREHTVPKWFDKAKFGIFIHWGIYSVPGWATPTGELGKVPMDAWFFQNPYAEWYENSLRIKESPTWEYHVKTYGENFEYEKFADLFTAEKWDPQEWADLFKKAGAKYVIPTTKHHDGFCLWGTKYTDFNSVKRGPKRDLVGDLAKAVREAGLRFGVYYSGGLDWRFTTEPIRYPEDLSYIRPNTYEYADYAYKQVMELVDLYLPDVLWNDMGWPEKGKEDLKYLFAYYYNKHPEGSVNDRWGVPHWDFKTAEYHVNYPGDLPGYKWEFTRGIGLSFGYNRNEGPEHMLSVEQLVYTLVDVVSKGGNLLLNVGPKGDGTIPDLQKERLLGLGEWLRKYGDAIYGTSVWERCCAKTEDGTEIRFTRKCNRIFVIFLGIPTGEKIVIEDLNLSAGTVRHFLTGERLSFKNVGKNLEITVPKKLLETDSITLVLEAVEE	not soluble
MGSDKIHHHHHHMISTANITMQFGSKPLFENVSVKFNNGNRYGLIGANGCGKSTFMKILGGDLEPSAGQVMLEPNTRLGKLRQDQFAYEEFTVIDTVIMGHGQLWKVKAERDRIYSLPEMTEEDGMAVAELETEFAEMDGYTAESRAGELLLGLGIPLEQHFGPMSEVAPGWKLRVLLAQALFSDPDVLLLDEPTNHLDINTIRWLETILTARNSTMIIISHDRHFLNSVCTHMADLDYGELRLFPGNYDEYMTAATQSREQLLSDNAKKKAQIAELQTFVSRFSANASKAKQATSRAKQIDKIQLAEVKPSSRVSPFIRFEQAKKLHRQAVVVEKMAKAFDDKVLFKNFDITVEAGERVAIIGPNGIGKTTLLRTLVGEMTPDAGSVKWTDSAEVGYYAQDHAHDFEDDMTLFDWMGQWTSGEQVIRGTLGRMLFSNDEILKSVKVISGGEQGRMLFGKLILQKPNVLVMDEPTNHLDMESIEALNLALENYPGTLLFVSHDREFVSSLATRIIELSADGVVDFSGTYDDYLRSQGVLV	not soluble
MGSDKIHHHHHHMITDPQIKACIHQHHLFSALGEEELCRLLGQAAKITLAAHENLFYQGDLAKRFYLVIQGHLQLYRTSLQGQDKVIEVVREGRTFAEALMFSRQASYPVSAQAVSHCTLVSFDSEGYLAMLRGNPDACIAIMAEMSVRLRKDINEVELLSVQNAQSRLLLFLLRNMQKIGDNQGRVELDIPKRVLASRLSIQPETFSRLMKKMVTEGIIGESRGAIDIKDLAKLYTSANMPLANQAIQTSEPLIRSGKAPCQQIAIEMV	not soluble
MGSDKIHHHHHHMIVLLREINRYCKEKATGKRIYAVPKLWIPGFFKKFDEKSGRCFVDPYELGAEITDWILNQSREWDYSQPLSFLKGEKTPDWIKRSVVYGSLPRTTAAYNHKGSGYYEENDVLGFREAGTFFKMMLLLPFVKSLGADAIYLLPVSRMSDLFKKGDAPSPYSVKNPMELDERYHDPLLEPFKVDEEFKAFVEACHILGIRVILDFIPRTAARDSDLIREHPDWFYWIKVEELADYTPPRAEELPFKVPDEDELEIIYNKENVKRHLKKFTLPPNLIDPQKWEKIKREEGNILELIVKEFGIITPPGFSDLINDPQPTWDDVTFLRLYLDHPEASKRFLDPNQPPYVLYDVIKASKFPGKEPNRELWEYLAGVIPHYQKKYGIDGARLDMGHALPKELLDLIIKNVKEYDPAFVMIAEELDMEKDKASKEAGYDVILGSSWYFAGRVEEIGKLPDIAEELVLPFLASVETPDTPRIATRKYASKMKKLAPFVTYFLPNSIPYVNTGQEIGEKQPMNLGLDTDPNLRKVLSPTDEFFGKLAFFDHYVLHWDSPDRGVLNFIKKLIKVRQQFLDFVLNGKFENLTTKDLVMYSYEKNGQKIVIAANVGKEPKEITGGRVWNGKWSDEEKVVLKPLEFALVVQE	not soluble
MGSDKIHHHHHHMIVYNSGAALEKARVRVGLVGTGYAAKFRAEALLHDERSQLIAVVGHTAEKTEAFVREYQIKALSSWQELVEREDVDLVVICTVNRDHGAIARAALTNGKHVIIEYPLSLDVVEADELIALAKAQKKLLHVEHLELLGGLHQALKQNLAKIGEVFYARYSTINPQNPAPRKWTYNHELFGFPLIGALSRLHRLIDLFGTVFTVNCHQRYWEIEPEYYQTCFCTSELCFNSGLLAQVVYGKGESIWQSERKFEVHGEKGGLVFDGDTGIFIQPEETTPIEVGPRRGLFAKDTAMVLDHLFDGTPLYVTPEQSLYTLKVADAAQRAAQTGFTMFM	not soluble
MGSDKIHHHHHHMIYYGTMFDHKVRFSIVRMREVVEEARNRHALSYLATVVLGRALIGAALVTPWLAEKERWTLDIEGNGPIRRVVAQSTSEFTVRGYVANPKVELPLNEKGKFDVAGAIGQGVLRVVRDLGLKTPFVSQVPLVSGEIAEDLAYYFAVSEQIPSAFSIGVLVDSDGVKIAGGFAVQIIDRTLEQEKVEMIEKNIKNLPSISKLFQEAEPLDVLERIFGEKVGFVETAEIKYKCDCNREKAKNALLVLDKKELEDMRKEGKGEVVCKWCNTRYVFSEEELEELLKFKVDDSGS	soluble
MGSDKIHHHHHHMKAISANLQRLLAESGMKQSHLATILNIPTSSLNEYVKGKSLPKIGNIQKIADYFGLQKSDIDPRFASKKDSSTLDKINHIAKQLEMKRQIKVLDFCYQQSKEQDETASLSASDETTEDKVADKSNHTQYQKVVDSFIAKELNDQTIIHWDNVIKAKDLYQTFGRQYENIQIYGEVSAGTGIWVGHEKQETIKYPIPIPEHDIALIVNGNSMEPLFYNGDVIFVKKTKAIHHGQIIVVIVNNEAYVKKLYRKNKEIRLISLNPDYDDIILKEDDTIEVIGTVIT	not soluble
MGSDKIHHHHHHMKAVVIVKRAGQERPDLEYQTVPDPKPEPNELLVSVRAAGINRIDLHRSTAHGAPAAGKPLVAGLEMSGEVVAVGENVHDFRTGDKVYGMTTGSYAELATIDHRYALPVPPAFSFDQATAVATVYPTAHNALVTNGQFAAGKTVLIQGVSSAVGIATLQIAKAMGAKCVVGTGRPNANIGKLAEAGLDRFLLNGTDNIPAEIMAMTDGRGVDTIVDMVGGPTIADNLESVALAGRIVSVGWVGGTKGEIDLDTLARKRVTLVGVSFRTRTVEEKTELFAQFRRDVYPLFVNGTLVPYIAATYHLSEAAAAQDAMAEDKHFGKILLHP	not soluble
MGSDKIHHHHHHMKDVARDIYLSRDKIDEIKRKRFRSTLKYVYDNSPFYRRLFKESGVDIDSIKEPADIAKLPFTTKQNLRESYPLKMACVEKEKIVRIQMSGGTTGQPVIIPYTRHDVEQWKEMLLRDFYLAGITSKDVIQITPAFGLWNGGFGFHFAADAIDAFVIPIGAGNTRNQVRFMVDFGTTVLCATASYPLRIAEVAEEMGYEPAELPVQKMLLGAEPWSEEMRRQIEKTFNCKAFDIPGLTEMGGVGTVGFECPSRNGLHIWEDNYIVEIVDPETGEVLEDGEEGEIVYTSLNREAMPLIRYRSGEVSAVVSREKCECGIEHMTIKRIRGRTDDMVIYKGVKFYPSDVEQILASYGVRHYRIEVGEGIRVIFEGENGLARKVIKDIKEFLGFSPRIEVVQPGSLERFEGKAKRLFRG	not soluble
MGSDKIHHHHHHMKEDSSLTPQEVADLLKITKYTVYEMVKRGELPAYRIGRKIRIEQRDVDAYIKQGKKLKYKDIDTLEASPRTQAARQDYLSTSPGLVICGQDLLLDILGRHLENHSQGCRAFRHNIGSFAGLLQLYQGESDMAGVHLWDSDSESYNIPYVRRMVPGIPTLIIHLAMRQQGFYVARSNPLGIKGWADLTIPGLRFINREPGCGTRVLLDEHLYQMKLDRRKINGYEREETSHLAVASAVARGTADLALGNEKAALQVRGIEFIPLQKERYELVIRKEDLDKAEIRAVLDILNSAAFKSELEGLGDYCLEETGRIVAEI	not soluble
